# Test results published in paper PMC7319049 (Nature, 2020).
# B1: Swi1 (natural protein)
# chain: MDFFNLNNNNNNNNTTTTTTTTNNNNTNNNNTNNNNNPANNTNNNNSTGHSSNTNNNTNNNNTNTGASGVDDFQNFFDPKPFDQNLDSNNNNSNSNNNDNNNSNTVASSTNFTSPTAVVNNAAPANVTGGKAANFIQNQSPQFNSPYDSNNSNTNLNSLSPQAILAKNSIIDSSNLPLQAQQQLYGGNNNNNSTGIANDNVITPHFITNVQSISQNSSSSTPNTNSNSTPNANQQFLPFNNSASNNGNLTSNQLISNYAASNSMDRSSSASNEFVPNTSDNNNNSNNHNMRNNSNNKTSNNNNVTAVPAATPANTNNSTSNANTVFSERAAMFAALQQKQQQRFQALQQQQQQQQNQQQQNQQPQQQQQQQQNPKFLQSQRQQQQRSILQSLNPALQEKISTELNNKQYELFMKSLIENCKKRNMPLQSIPEIGNRKINLFYLYMLVQKFGGADQVTRTQQWSMVAQRLQISDYQQLESIYFRILLPYERHMISQEGIKETQAKRIFLQQFLQELLKKVQQQQQAAALANANNNINSASSAPTPAAPGASVPATAAPGTEAGIVPVSANTPKSLNSNININVNNNNIGQQQVKKPRKQRVKKKTKKELELERKEREDFQKRQQKLLEDQQRQQKLLLETKLRQQYEIELKKLPKVYKRSIVRNYKPLINRLKHYNGYDINYISKIGEKIDSNKPIFLFAPELGAINLHALSMSLQSKNLGEINTALNTLLVTSADSNLKISLVKYPELLDSLAILGMNLLSNLSQNVVPYHRNTSDYYYEDAGSNQYYVTQHDKMVDKIFEKVNNNATLTPNDSNDEKVTILVDSLTGNQLPTPTPTEMEPDLDTECFISMQSTSPAVKQWDLLPEPIRFLPNQFPLKIHRTPYLTSLKKIKDEIDDPFTKINTRGAEDPKVLINDQLSTISMILRNISFSDNNSRIMSRNFYLKRFISDLLWLVLIHPENFTCNRKILNFKKDLVIVLSNISHLLEIASSIDCLLILILVISFGQPKLNPMASSSSFGSESLTFNEFQLQWGKYQTFGVDILAKLFSLEKPNLNYFKSILLNKNTGNNLYDRNSNNNHKDKKLLRRLLNLYNDNNKNNNNRHNLLNDVVSFLFSAIPLQQVLSQSADPSLLIDQFSPVISQSLTSILVIVQKILPLSNEVFEISENNSDSNSNNNGNKDSSFNFNKNLPFVWLSSEENIGSGLLKLSEIILNINNSTSKNTLLQQQNYSKVLLPSINISCVQLIKCLVEKSICFENCLNNDPEILKKIASIPNLFPTDLEIFQLFTNPSVDIQIINQYQLLYNLKNDILTNLE
# Assays:
# [1] = biological target: B1; experiment: cryo-EM structure
# [2] = biological target: Snf2 (S. cerevisiae, UniProt P22082 1-1703); experiment: cryo-EM structure
# Sequence of Snf2 (P22082 whole entry): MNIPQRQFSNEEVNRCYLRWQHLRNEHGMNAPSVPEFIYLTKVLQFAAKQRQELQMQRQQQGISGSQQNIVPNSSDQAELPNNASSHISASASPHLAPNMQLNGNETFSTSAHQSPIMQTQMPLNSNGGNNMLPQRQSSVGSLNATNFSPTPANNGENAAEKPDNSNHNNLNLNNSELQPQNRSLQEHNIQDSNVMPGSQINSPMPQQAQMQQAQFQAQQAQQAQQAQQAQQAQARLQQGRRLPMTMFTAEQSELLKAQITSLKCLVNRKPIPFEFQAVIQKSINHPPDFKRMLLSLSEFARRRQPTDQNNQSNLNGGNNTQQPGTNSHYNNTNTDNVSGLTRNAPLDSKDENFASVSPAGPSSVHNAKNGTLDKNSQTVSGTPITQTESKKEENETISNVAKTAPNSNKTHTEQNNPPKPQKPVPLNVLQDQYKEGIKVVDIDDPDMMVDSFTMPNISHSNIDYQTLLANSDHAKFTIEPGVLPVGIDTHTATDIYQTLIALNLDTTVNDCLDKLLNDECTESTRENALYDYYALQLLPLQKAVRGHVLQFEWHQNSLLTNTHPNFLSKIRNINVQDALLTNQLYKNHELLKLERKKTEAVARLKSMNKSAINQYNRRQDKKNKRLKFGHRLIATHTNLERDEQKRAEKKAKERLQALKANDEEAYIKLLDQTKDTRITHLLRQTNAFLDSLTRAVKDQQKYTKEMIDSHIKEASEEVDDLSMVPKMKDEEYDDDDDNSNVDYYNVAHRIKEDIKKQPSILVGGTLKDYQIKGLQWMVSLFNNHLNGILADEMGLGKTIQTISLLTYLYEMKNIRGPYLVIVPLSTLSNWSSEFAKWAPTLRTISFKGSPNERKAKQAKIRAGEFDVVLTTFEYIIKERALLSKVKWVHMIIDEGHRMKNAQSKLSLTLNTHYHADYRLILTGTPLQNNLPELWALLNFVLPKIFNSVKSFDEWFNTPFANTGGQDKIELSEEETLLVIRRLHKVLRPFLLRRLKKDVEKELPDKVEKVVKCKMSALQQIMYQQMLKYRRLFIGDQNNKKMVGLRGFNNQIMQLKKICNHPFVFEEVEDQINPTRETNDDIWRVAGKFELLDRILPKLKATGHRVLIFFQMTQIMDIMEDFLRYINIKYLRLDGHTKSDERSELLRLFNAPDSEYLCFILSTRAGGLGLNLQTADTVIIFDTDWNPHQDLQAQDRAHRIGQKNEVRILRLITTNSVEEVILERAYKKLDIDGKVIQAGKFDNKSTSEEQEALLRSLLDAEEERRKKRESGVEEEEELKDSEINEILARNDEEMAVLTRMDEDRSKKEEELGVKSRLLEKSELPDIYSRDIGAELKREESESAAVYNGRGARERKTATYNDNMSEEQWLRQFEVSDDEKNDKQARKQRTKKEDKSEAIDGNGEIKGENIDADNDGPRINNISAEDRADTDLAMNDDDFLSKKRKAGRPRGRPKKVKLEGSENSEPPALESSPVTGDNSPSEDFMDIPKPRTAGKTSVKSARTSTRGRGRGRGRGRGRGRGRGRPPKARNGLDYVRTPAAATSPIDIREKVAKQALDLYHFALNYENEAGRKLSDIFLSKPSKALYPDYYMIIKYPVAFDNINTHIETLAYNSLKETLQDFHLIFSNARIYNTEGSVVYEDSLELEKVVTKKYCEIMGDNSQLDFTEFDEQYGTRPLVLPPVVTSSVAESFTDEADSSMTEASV
Binder,binding result [1],binding result [2]
Snf5 (natural protein) MNNQPQGTNSVPNSIGNIFSNIGTPSFNMAQIPQQLYQSLTPQQLQMIQQRHQQLLRSRLQQQQQQQQQTSPPPQTHQSPPPPPQQSQPIANQSATSTPPPPPAPHNLHPQIGQVPLAPAPINLPPQIAQLPLATQQQVLNKLRQQAIAKNNPQVVNAITVAQQQVQRQIEQQKGQQTAQTQLEQQRQLLVQQQQQQQLRNQIQRQQQQQFRHHVQIQQQQQKQQQQQQQHQQQQQQQQQQQQQQQQQQQQQQQQQQQQQQQQQQQQQGQIPQSQQVPQVRSMSGQPPTNVQPTIGQLPQLPKLNLPKYQTIQYDPPETKLPYPTYWSDKKADTDTLLYEQIIQRDKINKYSLIRETNGYDPFSIYGFSNKEYISRLWHTLKYYQDLKNTRMKSITSTSQKIPSASIWGNGYSGYGNGITNTTTRVIPQVEVGNRKHYLEDKLKVYKQAMNETSEQLVPIRLEFDQDRDRFFLRDTLLWNKNDKLIKIEDFVDDMLRDYRFEDATREQHIDTICQSIQEQIQEFQGNPYIELNQDRLGGDDLRIRIKLDIVVGQNQLIDQFEWDISNSDNCPEEFAESMCQELELPGEFVTAIAHSIREQVHMYHKSLALLGYNFDGSAIEDDDIRSRMLPTITLDDVYRPAAESKIFTPNLLQISAAELERLDKDKDRDTRRKRRQGRSNRRGMLALSGTSASNTSMNGVHNTVAAGNASSLPPGEILLPDIADIPRTFRTPVPSTLMPGGVDVGPSVESYELRNTTTYKSRPDRPKPVSPPCYIIDHIPGHSLLLSIKLPGKVNTKEEFAAAPNDTSSGTNAMLPSPESLKTKLNSNIRAGVTIPSIPNPIANHTVTNSPNPTLQPVIPGGAASKSVPTPSLPIAPPVAPHDSEATLLTNSNNGSSNNNTQNT,binds,–
B1,–,binds
Arp7 (natural protein) MTLNRKCVVIHNGSHRTVAGFSNVELPQCIIPSSYIKRTDEGGEAEFIFGTYNMIDAAAEKRNGDEVYTLVDSQGLPYNWDALEMQWRYLYDTQLKVSPEELPLVITMPATNGKPDMAILERYYELAFDKLNVPVFQIVIEPLAIALSMGKSSAFVIDIGASGCNVTPIIDGIVVKNAVVRSKFGGDFLDFQVHERLAPLIKEENDMENMADEQKRSTDVWYEASTWIQQFKSTMLQVSEKDLFELERYYKEQADIYAKQQEQLKQMDQQLQYTALTGSPNNPLVQKKNFLFKPLNKTLTLDLKECYQFAEYLFKPQLISDKFSPEDGLGPLMAKSVKKAGASINSMKANTSTNPNGLGTSHINTNVGDNNSTASSSNISPEQVYSLLLTNVIITGSTSLIEGMEQRIIKELSIRFPQYKLTTFANQVMMDRKIQGWLGALTMANLPSWSLGKWYSKEDYETLKRDRKQSQATNATN,–,binds
Arp9 (natural protein) MAPFRQDSILIIYPRSQTTLVQFGLNEETFTVPELEIPTQIYRTTRQDGSYTYHSTNKDNKAELIKPIQNGEIIDISAFTQFLRLIFVSILSDRANKNQDAFEAELSNIPLLLITHHSWSQSDLEIITQYVFESLEINNLIQLPASLAATYSMISLQNCCIIDVGTHHTDIIPIVDYAQLDHLVSSIPMGGQSINDSLKKLLPQWDDDQIESLKKSPIFEVLSDDAKKLSSFDFGNENEDEDEGTLNVAEIITSGRDTREVLEERERGQKVKNVKNSDLEFNTFWDEKGNEIKVGKQRFQGCNNLIKNISNRVGLTLDNIDDINKAKAVWENIIIVGGTTSISGFKEALLGQLLKDHLIIEPEEEKSKREEEAKSVLPAATKKKSKFMTNSTAFVPTIEYVQCPTVIKLAKYPDYFPEWKKSGYSEIIFLGAQIVSKQIFTHPKDTFYITREKYNMKGPAALWDVQF,–,binds
Rtt102 (natural protein) MDPQTLITKANKVSYYGNPTSKESWRYDWYQPSKVSSNVQQPQQQLGDMENNLEKYPFRYKTWLRNQEDEKNLQRESCEDILDLKEFDRRILKKSLMTSHTKGDTSKATGAPSANQGDEALSVDDIRGAVGNSEAIPGLSAGVNNDNTKESKDVKMN,–,binds
